Test results taken from PMC12848304, “Small-molecule inhibitor of C‑terminal HSP90 dimerization modulates autophagy and functions synergistically with mTOR inhibition to kill cisplatin-resistant cancer cells” (Cell Death & Disease, 2025).

Biological target: the molecule itself
Assay: cross-linking; HSP90α CTD (2 μM) in Na2HPO4 (25 mM; pH 7.4), incubated 1 h at room temperature with different concentrations of VWK147, then BS3 100 μM for 1 h at room temperature; 12% SDS-PAGE and Western blot with anti-HSP90 (AC88)

B1: recombinant HSP90α CTD (domain or fragment)
chain: not shown
notes: C-terminal domain (CTD) of heat shock protein 90 alpha (HSP90α; HSPC1/HSP90AA1); It says human (hHSP90) only of HSP90 in general and in the modelling; also called CTD r-HSP90α; HSP90 CTD; source: recombinant
stoichiometry N: 2
